Data taken from article doi:10.1101/2025.04.13.648610, “Catalytic Mechanism and Differential Alarmone Regulation of a Conserved Stringent Nucleosidase” (bioRxiv, 2025).
Residue numbers refer to the chain shown, from its start. Numbers in names are those of the source.

B1: PpnN D49A (enzyme, Escherichia coli, UniProt P0ADR8 1-454, looked up)
chain: MITHISPLGSMDMLSQLEVDMLKRTASSDLYQLFRNCSLAVLNSGSLTANSKELLSRFENFDINVLRRERGVKLELINPPEEAFVDGRIIRALQANLFAVLRDILFVYGQIHNTVRFPNLNLDNSVHITNLVFSILRNARALHVGEAPNMVVCWGGHSINENEYLYARRVGNQLGLRELNICTGCGPGAMEAPMKGAAVGHAQQRYKDSRFIGMTEPSIIAAEPPNPLVNELIIMPDIEKRLEAFVRIAHGIIIFPGGVGTAEELLYLLGILMNPANKDQVLPLILTGPKESADYFRVLDEFVVHTLGENARRHYRIIIDDAAEVARQMKKSMPLVKENRRDTGDAYSFNWSMRIAPDLQMPFEPSHENMANLKLYPDQPVEVLAADLRRAFSGIVAGNVKEVGIRAIEEFGPYKINGDKEIMRRMDDLLQGFVAQHRMKLPGSAYIPCYEICT
notes: PpnN (previously YgdH), nucleosidase, Escherichia coli, with D49A; Made by quick-change mutagenesis on pCA24N-ppnN (wt); source: E. coli BL21 (DE3) ΔppnN, purified (Ni-NTA, Superdex 200)
B2: PpnN T261A (enzyme, Escherichia coli, UniProt P0ADR8 1-454, looked up)
chain: B1 chain with A49D, T261A
notes: PpnN (previously YgdH), nucleosidase, Escherichia coli, with T261A; Made by quick-change mutagenesis on pCA24N-ppnN (wt); also called T261A variant; source: E. coli BL21 (DE3) ΔppnN, purified (Ni-NTA, Superdex 200)
B3: PpnN R241A (enzyme, Escherichia coli, UniProt P0ADR8 1-454, looked up)
chain: B1 chain with A49D, R241A
notes: PpnN (previously YgdH), nucleosidase, Escherichia coli, with R241A; Made by quick-change mutagenesis on pCA24N-ppnN (wt); also called R241A variant; source: E. coli BL21 (DE3) ΔppnN, purified (Ni-NTA, Superdex 200)
B4: PpnN E263A (enzyme, Escherichia coli, UniProt P0ADR8 1-454, looked up)
chain: B1 chain with A49D, E263A
notes: PpnN (previously YgdH), nucleosidase, Escherichia coli, with E263A; Made by quick-change mutagenesis on pCA24N-ppnN (wt); also called E263A variant; source: E. coli BL21 (DE3) ΔppnN, purified (Ni-NTA, Superdex 200)
B5: PpnN M190A (enzyme, Escherichia coli, UniProt P0ADR8 1-454, looked up)
chain: B1 chain with A49D, M190A
notes: PpnN (previously YgdH), nucleosidase, Escherichia coli, with M190A; Made by quick-change mutagenesis on pCA24N-ppnN (wt); also called M190A variant; source: E. coli BL21 (DE3) ΔppnN, purified (Ni-NTA, Superdex 200)
B6: PpnN K195A (enzyme, Escherichia coli, UniProt P0ADR8 1-454, looked up)
chain: B1 chain with A49D, K195A
notes: PpnN (previously YgdH), nucleosidase, Escherichia coli, with K195A; Made by quick-change mutagenesis on pCA24N-ppnN (wt); source: E. coli BL21 (DE3) ΔppnN, purified (Ni-NTA, Superdex 200)
B7: PpnN H157A (enzyme, Escherichia coli, UniProt P0ADR8 1-454, looked up)
chain: B1 chain with A49D, H157A
notes: PpnN (previously YgdH), nucleosidase, Escherichia coli, with H157A; Made by quick-change mutagenesis on pCA24N-ppnN (wt); also called H157A variant; source: E. coli BL21 (DE3) ΔppnN, purified (Ni-NTA, Superdex 200)
B8: PpnN E223A (enzyme, Escherichia coli, UniProt P0ADR8 1-454, looked up)
chain: B1 chain with A49D, E223A
notes: PpnN (previously YgdH), nucleosidase, Escherichia coli, with E223A; Made by quick-change mutagenesis on pCA24N-ppnN (wt); also called E223A variant; source: E. coli BL21 (DE3) ΔppnN, purified (Ni-NTA, Superdex 200)
B9: PpnN E264A (enzyme, Escherichia coli, UniProt P0ADR8 1-454, looked up)
chain: B1 chain with A49D, E264A
notes: PpnN (previously YgdH), nucleosidase, Escherichia coli, with E264A; Made by quick-change mutagenesis on pCA24N-ppnN (wt); also called E264A 4:4 PpnN; E264A variant; source: E. coli BL21 (DE3) ΔppnN (ppnN::kan), purified (Ni-NTA, Superdex 200 for biochemistry; HisTrap, SourceQ, Superdex 200 Increase for crystallisation)
B10: PpnN (wild type), nucleosidase of Escherichia coli (enzyme, UniProt P0ADR8 1-454, looked up)
chain: B1 chain with A49D
notes: PpnN (previously YgdH), nucleosidase, Escherichia coli; PAG1 domain 1-150, catalytic domain 151-329, PAG2 domain 330-454; also called wt PpnN; PpnNwt; source: E. coli BL21 (DE3) ΔppnN (ppnN::kan), purified (Ni-NTA, Superdex 200 for biochemistry; HisTrap, SourceQ, Superdex 200 Increase for crystallisation); not shown: His6, N-terminal, kept

Biological target: the molecule itself
Test: SEC; Superdex 200 10/300 GL in 50 mM Tris-HCl pH 7.5, 200 mM NaCl, 5% glycerol, 5 mM BME; elution profiles of variants compared with wt PpnN

Protein | stoichiometry N
B1 | 4
B2 | 4
B3 | 4
B4 | 4
B5 | 4
B6 | 4
B7 | 4
B8 | 4

Biological target: the molecule itself
Test: crystal structure; PpnN E264A co-crystallised with pppGpp and 2 mM GMP (E264A 4:4 PpnN; four pppGpp and four R5P bound); 6-8 mg/ml PpnN; 3.5 Å

Protein | stoichiometry N
B9 | 4

Biological target: the molecule itself
Test: crystal structure; wt PpnN co-crystallised with pppGpp (3:4 PpnN; pppGpp on three of four subunits; R5P and guanine in the active sites); 6-8 mg/ml PpnN, 1-2 mM ligand

Protein | stoichiometry N
B10 | 4
